Biological target: Arabidopsis thaliana Fatty Acid Thioesterase A (FatA) (Arabidopsis thaliana) (UniProt Q42561)
Experiment: crystal structure

stoichiometry N: 2
Substance: Arabidopsis thaliana Fatty Acid Thioesterase A (FatA) (from UniProt Q42561 75-362) (enzyme)
